The record followed here is paper doi:10.1101/2025.06.20.660733.

For assay [1], the target named is neuraminidase of A/Moscow/10/1999 (H3N2), recombinant head domain (influenza A virus A/Moscow/10/1999 (H3N2)).
Assay [2] has as its target neuraminidase of A/cattle/Texas/56283/2024 (H5N1), recombinant head domain (influenza A virus A/cattle/Texas/56283/2024 (H5N1)).

B1: HB420 (human IgG1) (antibody, V domains shown)
VH: EVQLVESGAEVKKPGSSVKVSCMASGGSFGSYGFSWVRQAPGQGLEWMGGIIPLFDTPNYAQKFQGRVTITADASTSTVYMELSSLRSEDTAVYYCARDSLPYGDQNYYYGMHVWGQGTTVTVSS
VL: QSALTQPASLSGSPGQSITISCSGSSSDIGDYNYVSWYQQHPGKAPKLIIYDVTNRPSGVSDRLSGSKSGTTASLTISGLQAEDEADYYCSSYGGNYNLVFGGGTKLTVL
With B1, the NA inhibition of recombinant NA by enzyme-linked lectin assay (ELLA), IC50 in assay [1] was found to be 0.19 µg/mL; in assay [2], 50 µg/mL.
